Data taken from patent publication US20160222130A1.

Target: human Tie2 (on human Tie2-expressing cells) (human) (UniProt Q02763)
Experiment: cell-based or functional assay

human Tie2 (on human Tie2-expressing cells) (human), sequence (Q02763 23-1124): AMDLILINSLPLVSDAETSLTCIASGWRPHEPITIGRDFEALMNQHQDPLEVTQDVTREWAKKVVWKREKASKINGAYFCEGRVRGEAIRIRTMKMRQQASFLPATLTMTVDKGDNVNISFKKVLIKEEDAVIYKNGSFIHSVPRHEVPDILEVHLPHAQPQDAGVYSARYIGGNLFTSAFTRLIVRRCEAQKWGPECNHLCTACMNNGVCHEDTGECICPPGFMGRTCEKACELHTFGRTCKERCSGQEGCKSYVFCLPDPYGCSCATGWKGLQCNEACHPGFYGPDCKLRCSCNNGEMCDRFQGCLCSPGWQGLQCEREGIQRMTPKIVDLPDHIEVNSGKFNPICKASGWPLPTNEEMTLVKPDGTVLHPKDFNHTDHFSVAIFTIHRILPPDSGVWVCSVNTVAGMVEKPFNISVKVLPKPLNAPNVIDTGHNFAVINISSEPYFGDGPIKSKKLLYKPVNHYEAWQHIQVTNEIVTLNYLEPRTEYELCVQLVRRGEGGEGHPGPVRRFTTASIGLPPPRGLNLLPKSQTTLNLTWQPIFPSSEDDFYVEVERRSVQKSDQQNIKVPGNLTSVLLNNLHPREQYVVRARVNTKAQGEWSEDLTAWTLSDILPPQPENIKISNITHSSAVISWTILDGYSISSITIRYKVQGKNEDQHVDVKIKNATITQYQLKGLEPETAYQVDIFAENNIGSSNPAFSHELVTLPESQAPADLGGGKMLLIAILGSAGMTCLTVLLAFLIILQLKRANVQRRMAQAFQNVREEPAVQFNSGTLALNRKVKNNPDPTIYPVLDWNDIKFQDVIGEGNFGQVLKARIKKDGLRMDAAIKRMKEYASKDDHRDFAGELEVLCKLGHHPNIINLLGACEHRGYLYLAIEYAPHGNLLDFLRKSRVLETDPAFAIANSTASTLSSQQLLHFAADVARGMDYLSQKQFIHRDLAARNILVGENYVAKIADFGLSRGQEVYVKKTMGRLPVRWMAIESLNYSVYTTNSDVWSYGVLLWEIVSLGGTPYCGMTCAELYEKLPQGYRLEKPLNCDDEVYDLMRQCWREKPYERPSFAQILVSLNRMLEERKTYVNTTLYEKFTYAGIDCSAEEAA

Substance: Ang-2 (R&D, 623-AN-025) (from UniProt O15123 19-496) (ligand)
- EC50 value of anti-apoptotic activity, human Tie2-expressing BaF3 cell: 0.0393 µg/mL
- Maximum activity of anti-apoptotic activities (Ang-1 = 100%): 67%
